Among the data in patent publication US20240390486A1 are EC50 values, retold here.

Sequences and labels used below:
T1: peanut (Arachis hypogaea) allergen Ara h 6 (Arachis hypogaea) (UniProt Q647G9)
T1 sequence: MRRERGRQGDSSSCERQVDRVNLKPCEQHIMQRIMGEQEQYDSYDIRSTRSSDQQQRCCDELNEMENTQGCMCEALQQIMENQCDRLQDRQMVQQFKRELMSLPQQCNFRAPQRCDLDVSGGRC

B1: human IgE mAb 20M10 (antibody, from a related filing, V domains shown)
VH: EVQLVESGGGLVKPGGSLRLSCTVSGFTFNMHSMNWVRQAPGKGLEWVSFISSTSTYIYYPDSVKGRFTVSRDNSKNSLYLQMTSLRAEDTAVYYCVRRGRGGAARALDNWGQGTLVTVSS
VL: SYVLPQTPSLSVAPGQTATISCGGNNTGSKSVHWYQQKPGQAPLLVVYDNSDRPSGIPERFSGSNSGNTATLTLSRVEAEDEADYYCQVWDSTIDHVIFGGGTKLTVL
B2: human IgE mAb 21C10 (antibody, from a related filing, V domains shown)
VH: EVQLVESGGGLVKPGGSLRLSCAASGFILSRSSMSWVRQAPGKGLEWVSYISSTSSHIYYADSLKGRFTISRDNTENSVYLQMSSLRAEDTGVYYCARKTNGAWFLDLWGRGTLVTVSS
VL: QSVLTQPPSVSGAPGQRVTISCTGSSSNIGAGSDVHWYQQFPGSAPHVLIYGNNQRPSGVPDRFSASKSGTSASLAITGLQADDEADYYCQSYDYDLSGSWVFGGGTKLTVL
B3: human IgE mAb 8F3 (antibody, from a related filing, V domains shown)
VH: QLQLQESGPGLVKPSETLSLTCTVSDASIDTPSYFWSWIRQPPGKGLEWIGSIYYTGNKYSNPSLKSRVTMSVDTPKRQFSLRLSSVTAADTAVYYCARYVDYVWLRAFDIWGQGTRVTVSS
VL: EIVLTQSPATLSLSPGERATLSCRASPSAGRFLAWYQQRPGQAPRLLIYDASKRATDTPARFSGSGSGTDFNLTIASLEPEDFAVYYCQHRSNWPLTFGGGTKVEIK
B4: human IgE mAb 1A8 (antibody, from a related filing, V domains shown)
VH: QLQLQESGPGLVKPSETLSLTCSVSDDSISTPSYFWTWIRQPPGKGLEWIASIYYTGTTYYNPSLKSRVTLSVDTPKRQFFLRLSSVTAADTAVYYCARYLDYVWLRAFDVWGQGAMVTVSS
VL: B3 VL with A29V, R39K, K53Q, T58I, G64A, N72T, A76D, V85I, L96V, K103R
B5: human IgE mAb 15C2 (antibody, from a related filing, V domains shown)
VH: QVQLVQSESELKKPGASVKISCKASGYDLTKYAMNWVRQAPGQGLEWMGWINTNTAKPTYAQGFTGRFVFSLDTSVRTIYLEISNLKAEDTAIYYCSRDGSGASWGQGTLVTVSS
VL: DIQMTQSPSTLSASVGDRVTITCRASQNIGRWLAWHQQKPGKAPKVLITKASNLESGVPSRFTGSGSGTDFTLTITSLQPDDFATYYCQQYTTYSGTFGQGTRVEIK
B6: human IgE mAb 26A5 (antibody, from a related filing, V domains shown)
VH: QVQLVQSGSELRKPGASVKVSCKASGYTFTKYGMNWVRQAPGQGLEWMGWINTNTAKPTYAQDFTGRFVFSLDTSVNTAYLEISGLKAEDTAVYYCATDGSEGSWGQGTLVTVSS
VL: B5 VL with N28S, R31T, K42T, T49Y, E55K, T63S, T76S, F83V, T92N

Where a chain is given by its changes, count along the chain named.

The assay addresses T1, peanut (Arachis hypogaea) allergen Ara h 6 (Arachis hypogaea). Kind of assay: EC50 of IgE mAb on allergen, Table 1; method not stated.
What is called EC50 is the concentration that produces a half-maximal response. A low value points to greater potency. Molecule B1 registered a 50% effective concentration (EC50) of 5.3 ng/mL.
Next, B2: 3.2 ng/mL; B3: 3.8 ng/mL; B4: 5 ng/mL.
The molecule B5 returned an EC50 of 31.5 ng/mL.
With B6 the figure was 10.1 ng/mL.
